Source: patent US11021687B2, “Production of differentiated enteroendocrine cells and insulin producing cells” (Massachusetts Institute of Technology, priority 2016, dated 2021)

Key:
Assay type in all cases: cell-based, mouse
[1] = system: intestinal stem cells; experiment: Ngn3 mRNA expression during EEC differentiation; conditions: 2 days
Experimental: “Ngn3 Assay” as used herein is an assay used to determine the extent of expression of Ngn3 in cells, such as cells subjected to a differentiation protocol. In an exemplary Ngn3 Assay, RNA is isolated from cells that have been cultured according to a differentiation protocol, and quantitative real-time PCR is performed using commercially available primers and probes (such as Taqman probes) to determine an extent of Ngn3 expression in the cells.
(§1) Organoids or differentiated cells were harvested and RNA was extracted using RNeasy Micro Kit (Qiagen) according to the manufacturer's instruction. Quantitative real-time PCR was performed with QuantiTect Probe PCR kit (Qiagen) using commercially available primers and TaqMan probes (Life Technologies).
There has been prior speculation that Ngn3 positive secretory progenitors differentiate to EECs (Genes Dev. 2002).

[2] = system: gastrointestinal stem cells; experiment: Insulin / Nkx6.1 mRNA expression (qPCR), 3-stage conversion to insulin producing cells; conditions: added in Stage 1, combined with RepSox
Text: “mRNA Insulin Expression Assay” refers to an assay used to determine the relative insulin mRNA expression level of a cell population. For example, the assay can determine the insulin mRNA level expressed in a cell population treated to increase the expression of insulin in the cells, as compared to an untreated population of cells. In an exemplary mRNA Insulin Expression Assay, the cells were collected and the RNA is extracted from the cells using an RNA extraction kit (such as RNeasy Mini kit, Qiagen). The insulin expression level is then assessed by Quantitative real-time PCR using a one-step qPCR kit (such as QuantiTech Probe PCR kit, Qiagen) and Ins1 or Ins2 primers and probes (such as the commercially available TaqMan probe for mouse Ins1 and Ins2, Life Technologies). The relative insulin mRNA expression can be determined relative to a baseline or other marker, such as Hprt mRNA expression level or other baseline marker.
Organoids or differentiated cells were harvested and RNA was extracted using RNeasy Micro Kit (Qiagen) according to the manufacturer's instruction. Quantitative real-time PCR was performed with QuantiTect Probe PCR kit (Qiagen) using commercially available primers and TaqMan probes (Life Technologies). […]

[3] = system: intestinal stem cells; experiment: mRNA expression (qPCR) of ChgA and other lineage markers in differentiated intestinal stem cells; conditions: Noggin in step 2
Text: “mRNA ChgA Expression Assay” refers to an assay used to determine the relative ChgA mRNA expression level in a cell population. For example, the assay can determine ChgA mRNA expression level of a differentiated cell population following treatment with agents being tested, as compared to an untested population of post-natal stem cells. In an example of an mRNA ChgA Expression Assay, the cells were collected and the RNA is extracted from the cells using an RNA extraction kit (such as RNeasy Mini kit, Qiagen). The ChgA expression level is then assessed by Quantitative real-time PCR using a one-step qPCR kit (such as QuantiTech Probe PCR kit, Qiagen) and ChgA primers and probes (such as commercially available Taqman probe for mouse ChgA, Life Technologies).
as §1
Cells were then cultured with EGF, Noggin, and DAPT (END), as well as small molecules. After 2-3 days of differentiation, the cells lysed and ChgA expression was measured by qRT-PCR.
Small molecules were further validated using a 24-well plate culture and the differentiation system. […]

B1: R-spondin1: Wnt activator, a protein belonging to the R-Spondin family (protein, UniProt Q2MKA7 21-263, looked up)
R-spondin-1: SRGIKGKRQRRISAEGSQACAKGCELCSEVNGCLKCSPKLFILLERNDIRQVGVCLPSCPPGYFDARNPDMNKCIKCKIEHCEACFSHNFCTKCKEGLYLHKGRCYPACPEGSSAANGTMECSSPAQCEMSEWSPWGPCSKKQQLCGFRRGSEERTRRVLHAPVGDHAACSDTKETRRCTVRRVPCPEGQKRRKGGQGRRENANRNLARKESKEAGAGSRRRKGQQQQQQQGTVGPLTSAGPA
Ngn3 expression on removal of R-spondin1 [1]: strong reduction

B2: FGF10: growth factor added in Stage 1 (protein, UniProt O15520 38-208, looked up)
Fibroblast growth factor 10: QALGQDMVSPEATNSSSSSFSSPSSAGRHVRSYNHLQGDVRWRKLFSFTKYFLKIEKNGKVSGTKKENCPYSILEITSVEIGVVAVKAINSNYYLAMNKKGKLYGSKEFNNDCKLKERIEENGYNTYASFNWQHNGRQMYVALNGKGAPRRGQKTRRKNTSAHFLPMVVHS
Insulin expression [2]: further increased

B3: Noggin: growth factor (protein, UniProt Q13253 28-232, looked up)
Noggin: QHYLHIRPAPSDNLPLVDLIEHPDPIFDPKEKDLNETLLRSLLGGHYDPGFMATSPPEDRPGGGGGAAGGAEDLAELDQLLRQRPSGAMPSEIKGLEFSEGLAQGKKQRLSKKLRRKLQMWLWSQTFCPVLYAWNDLGSRFWPRYVKVGSCFSKRSCSVPEGMVCKPSKSVHLTVLRWRCQRRGGQRCGWIPIQYPIISECKCSC
effect on EEC differentiation [3]: marginal
